Results: patent US11499162B2, “Plants having increased tolerance to herbicides” (BASF SE, priority 2016, dated 2022)
Numbering of substitutions follows the chain as printed. In names and notes the source's numbering stands.

B1: V69A: mutated TriA variant of SEQ ID NO: 2 (protein)
chain: MQTLSIQHGTLVTMDQYRRVLGDSWVHVQDGRIVALGVHAESVPPPADRVIDARGKVVLPGFINAHTHANQILLRGGPSHGRQLYDWLFNVLYPGQKAMRPEDVAVAVRLYCAEAVRSGITTINDNADSAIYPGNIEAAMAVYGEVGVRVVYARMFFDRMDGRIQGYVDALKARSPQVELCSIMEETAVAKDRITALSDQYHGTAGGRISVWPAPAITPAVTVEGMRWAQAFARDRAVMWTLHMAESDHDERLHWMSPAEYMECYGLLDERLQVAHCVYFDRKDVRLLHRHNVKVASQVVSNAYLGSGVAPVPEMVERGMAVGIGTDDGNCNDSVNMIGDMKFMAHIHRAVHRDADVLTPEKILEMATIDGARSLGMDHEIGSIETGKRADLILLDLRHPQTTPHHHLAATIVFQAYGNEVDTVLIDGNVVMENRRLSFLPPERELAFLEEAQSRATAILQRANMVANPAWRSL
modifications: Pseudomonas
B2: Q96D: mutated TriA variant of SEQ ID NO: 2 (protein)
chain: B1 chain with A69V, Q96D
modifications: Pseudomonas
B3: M155E: mutated TriA variant of SEQ ID NO: 2 (protein)
chain: B1 chain with A69V, M155E
modifications: Pseudomonas
B4: N126M: mutated TriA variant of SEQ ID NO: 2 (protein)
chain: B1 chain with A69V, N126M
modifications: Pseudomonas
B5: N70LQ71IL74A: mutated TriA variant of SEQ ID NO: 2 (protein)
chain: B1 chain with A69V, N70L, Q71I, L74A
modifications: Pseudomonas
B6: D128S: mutated TriA variant of SEQ ID NO: 2 (protein)
chain: B1 chain with A69V, D128S
modifications: Pseudomonas
B7: R82M: mutated TriA variant of SEQ ID NO: 2 (protein)
chain: B1 chain with A69V, R82M
modifications: Pseudomonas
B8: F157A: mutated TriA variant of SEQ ID NO: 2 (protein)
chain: B1 chain with A69V, F157A
modifications: Pseudomonas
B9: D128N: mutated TriA variant of SEQ ID NO: 2 (protein)
chain: B1 chain with A69V, D128N
modifications: Pseudomonas
B10: L74V: mutated TriA variant of SEQ ID NO: 2 (protein)
chain: B1 chain with A69V, L74V
modifications: Pseudomonas
B11: R82G: mutated TriA variant of SEQ ID NO: 2 (protein)
chain: B1 chain with A69V, R82G
modifications: Pseudomonas
B12: L88AY167I: mutated TriA variant of SEQ ID NO: 2 (protein)
chain: B1 chain with A69V, L88A, Y167I
modifications: Pseudomonas
B13: Q96E: mutated TriA variant of SEQ ID NO: 2 (protein)
chain: B1 chain with A69V, Q96E
modifications: Pseudomonas
B14: M155A: mutated TriA variant of SEQ ID NO: 2 (protein)
chain: B1 chain with A69V, M155A
modifications: Pseudomonas
B15: R82L: mutated TriA variant of SEQ ID NO: 2 (protein)
chain: B1 chain with A69V, R82L
modifications: Pseudomonas
B16: M155G: mutated TriA variant of SEQ ID NO: 2 (protein)
chain: B1 chain with A69V, M155G
modifications: Pseudomonas
B17: F157M: mutated TriA variant of SEQ ID NO: 2 (protein)
chain: B1 chain with A69V, F157M
modifications: Pseudomonas
B18: D128A: mutated TriA variant of SEQ ID NO: 2 (protein)
chain: B1 chain with A69V, D128A
modifications: Pseudomonas
B19: L841L88AY167I: mutated TriA variant of SEQ ID NO: 2 (protein)
chain: B1 chain with A69V, L84I, L88A, Y167I
modifications: Pseudomonas
B20: N126D: mutated TriA variant of SEQ ID NO: 2 (protein)
chain: B1 chain with A69V, N126D
modifications: Pseudomonas
B21: Q96A: mutated TriA variant of SEQ ID NO: 2 (protein)
chain: B1 chain with A69V, Q96A
modifications: Pseudomonas
B22: V69S: mutated TriA variant of SEQ ID NO: 2 (protein)
chain: B1 chain with A69S
modifications: Pseudomonas
B23: L74A: mutated TriA variant of SEQ ID NO: 2 (protein)
chain: B1 chain with A69V, L74A
modifications: Pseudomonas
B24: V69L: mutated TriA variant of SEQ ID NO: 2 (protein)
chain: B1 chain with A69L
modifications: Pseudomonas
B25: N70T: mutated TriA variant of SEQ ID NO: 2 (protein)
chain: B1 chain with A69V, N70T
modifications: Pseudomonas
B26: N126S: mutated TriA variant of SEQ ID NO: 2 (protein)
chain: B1 chain with A69V, N126S
modifications: Pseudomonas
B27: L84VL88AY167I: mutated TriA variant of SEQ ID NO: 2 (protein)
chain: B1 chain with A69V, L84V, L88A, Y167I
modifications: Pseudomonas
B28: N126A: mutated TriA variant of SEQ ID NO: 2 (protein)
chain: B1 chain with A69V, N126A
modifications: Pseudomonas
B29: Q96N: mutated TriA variant of SEQ ID NO: 2 (protein)
chain: B1 chain with A69V, Q96N
modifications: Pseudomonas

format: biochemical; settings: pH 7.2
Outline: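 Expression: BL21(DE3) Gold, pET24d N-His, pGro7, 0.1 mM IPTG, 25° C, 20 h. Reaction: 25 mM Na phosphate pH 7.2, substrate 1 nM to 10 nM, 30° C. Analysis: UPLC-HR-MS; % degradation vs empty vector.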

Compared with B1, B2 is higher in “Degradation in % of 6-cyclopentyl-N4-(2,3,4,5,6-pentafluorophenyl)-1,3,5-triazine-2,4-diamine” value: 0% for the first, 4% for the second.

B3 and B4 are the same in “Degradation in % of 6-cyclopentyl-N4-(2,3,4,5,6-pentafluorophenyl)-1,3,5-triazine-2,4-diamine” value: 0% for the first, 0% for the second.

B5 and B6 are the same in “Degradation in % of 6-cyclopentyl-N4-(2,3,4,5,6-pentafluorophenyl)-1,3,5-triazine-2,4-diamine” value: 0% for the first, 0% for the second.

Compared with B7, B8 is lower in “Degradation in % of 6-cyclopentyl-N4-(2,3,4,5,6-pentafluorophenyl)-1,3,5-triazine-2,4-diamine” value: 2% for the first, 0% for the second.

Going from B9 to B10, the “Degradation in % of 6-cyclopentyl-N4-(2,3,4,5,6-pentafluorophenyl)-1,3,5-triazine-2,4-diamine” value falls from 2% to 0%.

B11 and B12 are the same in “Degradation in % of 6-cyclopentyl-N4-(2,3,4,5,6-pentafluorophenyl)-1,3,5-triazine-2,4-diamine” value: 0% for the first, 0% for the second.

First: B13
Second: B14
The “Degradation in % of 6-cyclopentyl-N4-(2,3,4,5,6-pentafluorophenyl)-1,3,5-triazine-2,4-diamine” value of the first is lower: 0% for the first, 4% for the second.

Compared with B15, B16 is lower in “Degradation in % of 6-cyclopentyl-N4-(2,3,4,5,6-pentafluorophenyl)-1,3,5-triazine-2,4-diamine” value: 1% for the first, 0% for the second.

Compared with B17, B18 is higher in “Degradation in % of 6-cyclopentyl-N4-(2,3,4,5,6-pentafluorophenyl)-1,3,5-triazine-2,4-diamine” value: 0% for the first, 5% for the second.

Compared with B19, B20 is lower in “Degradation in % of 6-cyclopentyl-N4-(2,3,4,5,6-pentafluorophenyl)-1,3,5-triazine-2,4-diamine” value: 4% for the first, 0% for the second.

Compared with B21, B22 is higher in “Degradation in % of 6-cyclopentyl-N4-(2,3,4,5,6-pentafluorophenyl)-1,3,5-triazine-2,4-diamine” value: 0% for the first, 3% for the second.

Going from B23 to B24, the “Degradation in % of 6-cyclopentyl-N4-(2,3,4,5,6-pentafluorophenyl)-1,3,5-triazine-2,4-diamine” value falls from 1% to 0%.

Going from B25 to B26, the “Degradation in % of 6-cyclopentyl-N4-(2,3,4,5,6-pentafluorophenyl)-1,3,5-triazine-2,4-diamine” value rises from 0% to 1%.

First: B27
Second: B28
The “Degradation in % of 6-cyclopentyl-N4-(2,3,4,5,6-pentafluorophenyl)-1,3,5-triazine-2,4-diamine” value of the first is lower: 3% for the first, 4% for the second.

For B29, the “Degradation in % of 6-cyclopentyl-N4-(2,3,4,5,6-pentafluorophenyl)-1,3,5-triazine-2,4-diamine” value was 2%.

Going from B1 to B2, the “Degradation in % of Melamine” value falls from 5% to 0%.

Compared with B3, B4 is higher in “Degradation in % of Melamine” value: 0% for the first, 3% for the second.

Going from B5 to B6, the “Degradation in % of Melamine” value falls from 2% to 0%.

Going from B7 to B8, the “Degradation in % of Melamine” value rises from 2% to 19%.

Compared with B9, B10 is higher in “Degradation in % of Melamine” value: 0% for the first, 3% for the second.

First: B11
Second: B12
The “Degradation in % of Melamine” value of the first is lower: 0% for the first, 2% for the second.

B13 and B14 are the same in “Degradation in % of Melamine” value: 0% for the first, 0% for the second.

First: B15
Second: B16
The “Degradation in % of Melamine” value of the first is lower: 1% for the first, 4% for the second.

Going from B17 to B18, the “Degradation in % of Melamine” value falls from 17% to 3%.

Going from B19 to B20, the “Degradation in % of Melamine” value falls from 9% to 0%.

First: B21
Second: B22
The “Degradation in % of Melamine” value of the first is lower: 0% for the first, 5% for the second.

B23 and B24 are the same in “Degradation in % of Melamine” value: 0% for the first, 0% for the second.

Compared with B25, B26 is higher in “Degradation in % of Melamine” value: 0% for the first, 2% for the second.

Going from B27 to B28, the “Degradation in % of Melamine” value falls from 7% to 2%.

With B29 the “Degradation in % of Melamine” value was 2%.
